# Laboratory results: patent publication US20110091480A1 (published 2011)
# T1: ORF0657t CNBr fragment [001-323] (Band 35 kDa) (S. aureus, UniProt A5IS15 42-363)
# T1 construct: also called 35 kDa band
# T1 sequence: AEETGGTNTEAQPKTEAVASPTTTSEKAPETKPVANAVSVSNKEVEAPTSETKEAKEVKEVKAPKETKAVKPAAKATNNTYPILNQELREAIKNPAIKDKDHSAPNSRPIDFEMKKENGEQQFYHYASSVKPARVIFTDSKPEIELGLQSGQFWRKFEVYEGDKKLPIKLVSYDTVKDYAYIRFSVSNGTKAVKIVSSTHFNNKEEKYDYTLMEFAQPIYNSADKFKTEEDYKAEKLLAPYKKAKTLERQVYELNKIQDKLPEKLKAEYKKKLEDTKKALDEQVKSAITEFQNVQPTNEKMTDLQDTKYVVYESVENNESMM
# T2: ORF0657t CNBr fragment [114-214] (Band 10 kDa) (S. aureus, UniProt A5IS15 154-254)
# T2 construct: also called 10 kDa band
# T2 sequence: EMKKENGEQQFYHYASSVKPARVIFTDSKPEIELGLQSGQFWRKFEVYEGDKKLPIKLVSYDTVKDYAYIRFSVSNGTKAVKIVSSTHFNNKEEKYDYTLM
# T3: ORF0657t CNBr fragment [215-302] (Band 10 kDa) (S. aureus, UniProt A5IS15 255-342)
# T3 construct: also called 10 kDa band
# T3 sequence: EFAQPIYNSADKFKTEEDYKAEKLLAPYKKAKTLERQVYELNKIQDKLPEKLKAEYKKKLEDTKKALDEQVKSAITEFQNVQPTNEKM
# T4: ORF0657t CNBr fragment [001-214] (Band 25 kDa) (S. aureus, UniProt A5IS15 42-254)
# T4 construct: also called 25 kDa band
# T4 sequence: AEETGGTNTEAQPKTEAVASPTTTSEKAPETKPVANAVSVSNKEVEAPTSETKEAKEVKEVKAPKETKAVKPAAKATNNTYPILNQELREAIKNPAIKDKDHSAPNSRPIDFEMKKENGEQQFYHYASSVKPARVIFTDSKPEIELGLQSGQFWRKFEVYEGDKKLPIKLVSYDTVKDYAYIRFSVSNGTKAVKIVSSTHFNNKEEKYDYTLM
# T5: ORF0657t CNBr fragment [116-302] (Band 25 kDa) (S. aureus, UniProt A5IS15 156-342)
# T5 construct: also called 25 kDa band
# T5 sequence: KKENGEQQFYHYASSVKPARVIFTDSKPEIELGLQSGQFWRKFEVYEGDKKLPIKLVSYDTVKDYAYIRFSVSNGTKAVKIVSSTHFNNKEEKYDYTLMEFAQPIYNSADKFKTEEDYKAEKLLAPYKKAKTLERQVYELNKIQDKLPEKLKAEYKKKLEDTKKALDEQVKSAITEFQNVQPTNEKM
# B1: mAb 2H2.B8 (antibody, V domains shown)
# VH: DVHLVESGPGLVAPSQNLSITCTVSGFSLSRYGVHWVRQPPGKGLEWLGLIWAGGVTIYNSTLMSRLSISKDSSKSQVFLKMNSLQIDDTAIYYCAREASRDHYFDYWGQGTTLTVSS
# VL: DIVMTQSPAIMSASPGEKITMTCSASSSVSYIYWYQQKSGTSPKRWIYDTSKLASGVPFRFSGGGSGTSFSLTISSMEAEDAATYYCQQWSSNPLTFGAGTKLEIKR
# notes: also called 2H2.B8 (IgG1)
# B2: mAb 2H2.BE11 (antibody, V domains shown)
# VH: B1 VH
# VL: B1 VL
# notes: also called 2H2.BE11 (IgG2b); 2H2 mAb
# B3: 2H2 scAb (scFv)
# scFv: DIVMTQSPAIMSASPGEKITMTCSASSSVSYIYWYQQKSGTSPKRWIYDTSKLASGVPFRFSGGGSGTSFSLTISSMEAEDAATYYCQQWSSNPLTFGAGTKLEIKRGGGGSGGGGSGGGGSGGGGSDVHLVESGPGLVAPSQNLSITCTVSGFSLSRYGVHWVRQPPGKGLEWLGLIWAGGVTIYNSTLMSRLSISKDSSKSQVFLKMNSLQIDDTAIYYCAREASRDHYFDYWGQGTTLTVSSRTVAAPSVFIFPPSDEQLKSGTASVVCLLNNFYPREAKVQWKVDNALQSGNSQESVTEQDSKDSTYSLSSTLTLSKADYEKHKVYACEVTHQGLSSPVTKSFNRGEC
# notes: domain: human kappa light chain constant domain; also called 2H2 clone; scFv with a Human Kappa chain tag
# B4: 2H2 IgG chimera (antibody, V domains shown)
# VH: B1 VH
# VL: B1 VL
# notes: also called chimeric antibody; Mouse 2H2 Variable and Human IgG1 / Human Kappa Constant Region
# Assays:
# [1] = target: T6, ORF0657n-H/y (SEQ ID NO: 3) (S. aureus, UniProt A6QG30 42-609); assay: Western blot (dot blot confirmed by Western)
# T6 construct: also called Yeast expressed ORF0657n-H/y antigen
# T6 sequence (A6QG30 42-609, tags left off): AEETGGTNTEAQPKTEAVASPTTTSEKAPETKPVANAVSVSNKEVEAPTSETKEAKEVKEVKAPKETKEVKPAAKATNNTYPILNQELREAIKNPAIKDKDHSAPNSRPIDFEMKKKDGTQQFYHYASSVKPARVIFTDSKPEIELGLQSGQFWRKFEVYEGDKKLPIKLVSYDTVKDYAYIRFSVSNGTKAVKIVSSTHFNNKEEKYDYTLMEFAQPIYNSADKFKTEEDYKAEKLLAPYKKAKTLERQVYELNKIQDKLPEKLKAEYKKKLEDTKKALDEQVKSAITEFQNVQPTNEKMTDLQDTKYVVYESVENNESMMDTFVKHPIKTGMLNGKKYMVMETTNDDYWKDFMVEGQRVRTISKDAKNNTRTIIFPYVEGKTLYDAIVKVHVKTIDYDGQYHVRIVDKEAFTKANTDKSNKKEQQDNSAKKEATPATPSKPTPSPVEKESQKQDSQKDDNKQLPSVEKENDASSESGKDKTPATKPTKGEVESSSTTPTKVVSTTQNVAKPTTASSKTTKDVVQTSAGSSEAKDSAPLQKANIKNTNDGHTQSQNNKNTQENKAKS
# [2] = target: T7, ORF0657t (ORF0657n fragment from amino acid 42 to amino acid 486 of SEQ ID NO: 1) (S. aureus, UniProt A5IS15 42-486); assay: SPR Biacore 3000, IgG captured as ligand, ORF0657t as analyte
# T7 construct: also called ORFO657t
# [3] = target: T1, ORF0657t CNBr fragment [001-323] (Band …); assay: Western blot of CNBr cleavage products of ORF0657t with 2H2 mAb
# [4] = target: T2, ORF0657t CNBr fragment [114-214] (Band …); assay: Western blot of CNBr cleavage products of ORF0657t with 2H2 mAb (Band 10 kDa)
# [5] = target: T3, ORF0657t CNBr fragment [215-302] (Band …); assay: as above
# [6] = target: T8, ORF0657t CNBr fragment [357-446] (Band 10 kDa) (S. aureus, UniProt A5IS15 397-486); assay: as above
# T8 construct: also called 10 kDa band
# T8 sequence (A5IS15 397-486): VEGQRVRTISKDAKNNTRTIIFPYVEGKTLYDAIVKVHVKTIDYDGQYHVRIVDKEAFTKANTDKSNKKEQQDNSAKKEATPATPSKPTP
# [7] = target: T9, ORF0657t CNBr fragment [215-356] (Band 15 kDa) (S. aureus, UniProt A5IS15 255-396); assay: Western blot of CNBr cleavage products of ORF0657t with 2H2 mAb (Band 15 kDa)
# T9 construct: also called 15 kDa band
# [8] = target: T10, ORF0657t CNBr fragment [303-446] (Band 15 kDa) (S. aureus, UniProt A5IS15 343-486); assay: as above
# T10 construct: also called 15 kDa band
# T10 sequence (A5IS15 343-486): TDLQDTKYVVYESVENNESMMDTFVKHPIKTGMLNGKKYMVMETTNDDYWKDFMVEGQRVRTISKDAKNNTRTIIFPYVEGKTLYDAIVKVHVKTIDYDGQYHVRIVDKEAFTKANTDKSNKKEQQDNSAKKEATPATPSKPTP
# [9] = target: T4, ORF0657t CNBr fragment [001-214] (Band …); assay: Western blot of CNBr cleavage products of ORF0657t with 2H2 mAb (Band 25 kDa)
# [10] = target: T5, ORF0657t CNBr fragment [116-302] (Band …); assay: as above
# [11] = target: T7, ORF0657t (ORF0657n fragment from amino …); assay: SPR Biacore 3000, ORF0657t bound to the surface, antibody fragment as analyte
binder,measurement,setting,value
B1,binding result,[1],binds
B2,Kd,[2],33 nM
same,koff,[2],0.00201 s⁻¹
same,kon,[2],61000 M⁻¹ s⁻¹
same,binding result,[3],no binding
same,binding result,[4],no binding
same,binding result,[5],no binding
same,binding result,[6],no binding
same,binding result,[7],no binding
same,binding result,[8],no binding
same,binding result,[9],no binding
same,binding result,[10],no binding
B3,Kd,[11],39 nM
same,koff,[11],0.00191 s⁻¹
same,kon,[11],49100 M⁻¹ s⁻¹
B4,Kd,[2],25 nM
same,koff,[2],0.00273 s⁻¹
same,kon,[2],110000 M⁻¹ s⁻¹
